Experimental findings from US20160032297, “METHODS FOR THE IDENTIFICATION OF VARIANT RECOGNITION SITES FOR RARE-CUTTING ENGINEERED DOUBLE-STRAND-BREAK-INDUCING AGENTS AND COMPOSITIONS AND USES THEREOF” (E.I. DU PONT DE NEMOURS AND COMPANY, published 2016) are described below.

The target in the series is T1, MHP14+ meganuclease (single-chain engineered I-CreI) (artificial).
T1 chain: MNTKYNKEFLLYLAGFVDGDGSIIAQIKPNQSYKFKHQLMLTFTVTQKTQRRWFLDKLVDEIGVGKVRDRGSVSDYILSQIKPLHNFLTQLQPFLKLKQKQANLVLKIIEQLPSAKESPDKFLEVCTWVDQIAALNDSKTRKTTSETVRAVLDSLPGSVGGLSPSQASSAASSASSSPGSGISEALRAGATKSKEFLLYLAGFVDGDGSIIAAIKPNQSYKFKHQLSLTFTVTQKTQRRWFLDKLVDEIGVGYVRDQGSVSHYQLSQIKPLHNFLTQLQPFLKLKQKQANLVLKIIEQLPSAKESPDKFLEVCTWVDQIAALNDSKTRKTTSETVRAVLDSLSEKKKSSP
Nature of the series: cleavage_in_vitro; depends on reaction temperature. The note with it: tags: expressed from pQE80 in E. coli, Ni-NTA purified. The method, then:
To generate material for the capture of genomic variant recognition sites, in vitro assays were carried out with 114 nM of purified meganuclease protein isolated as described in Example 2 and 6.07 μg of purified maize genomic DNA at 32° C. for 80 minutes in a final volume of 80 μl in the presence of digestion buffer (50 mM Tris-HCl (pH 7.9), 100 mM NaCl, 10 mM MgCl₂, 1 mM DTT, […]). After 80 minutes, the entire reaction was stopped with an equal volume of stop buffer (100 mM Tris-HCl (pH 8.0), 600 mM NaCl, 2% SDS, 100 mM EDTA, 1 mg of proteinase K per ml) and incubated at 50° C. for 30-45 minutes. Stopped reactions were purified by phenol/chloroform extraction and ethanol precipitated in the presence of 0.2 M NaCl. Precipitated genomic DNA was washed twice with 70% ethanol, dried, and resuspended in 34 μl of water. […]

B1: MHP14+ maize genomic variant site (dsDNA)
DNA 1: CAAGAAGAAGCACGTCAGCTTA
DNA 2: TAAGCTGACGTGCTTCTTCTTG
Turning to B1, the relative cleavage activity was ~3 fold vs intended site.
